Source: the supplement of paper PMC10724198
± gives the standard deviation of the averaged measurements.

What was measured:
[1] = system: Saccharomyces cerevisiae; assay: protein stability index of tFT-peptide fusion (C-terminal peptide) (PSI (0-1 scale)); higher = more stable (slower turnover)
Description: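 MPS profiling in S. cerevisiae of the tFT-X12 degron library: putative degron peptides plus stable controls, 12 aa, fused to the C-terminus of a sfGFP-mCherry timer. Cells are FACS-sorted into 8 mCherry/sfGFP bins and deep-sequenced. PSI runs from 0 (unstable) to 1 (stable). Backgrounds are wild type, das1Δ and doa10Δ at 30 °C, and wild type, das1Δ, cdc34-1 and cdc53-1 at 37 °C; 2-3 technical replicates each.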

[2] = system: Saccharomyces cerevisiae; assay: as above; conditions: genetic background: wild type; temperature: 30 C
[3] = genetic background: cdc34-1, temperature: 37 C
[4] = genetic background: cdc53-1, temperature: 37 C
[5] = genetic background: das1 deletion, temperature: 30 C
[6] = genetic background: das1 deletion, temperature: 37 C
[7] = genetic background: doa10 deletion, temperature: 30 C
[8] = genetic background: wild type, temperature: 30 C
[9] = genetic background: wild type, temperature: 37 C
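Also: PSI is a weighted mean of sequencing reads over stability bins, variants kept only with over 10 reads, mCherry proximal and sfGFP distal, peptide attached via GGGS linker.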

PSSPTPPPSSSP
protein stability index [1, 3]: 0.655 ± 0.021 | protein stability index [1, 4]: 0.726 ± 0.011 | protein stability index [1, 5]: 0.664 ± 0.017 | protein stability index [1, 6]: 0.73 ± 0.0086 | protein stability index [1, 7]: 0.679 ± 0.017 | protein stability index [1, 8]: 0.673 ± 0.011 | protein stability index [1, 9]: 0.7306 ± 0.0015 | protein stability index [2]: 0.353 ± 0.039

EKHRRYAITKFI
protein stability index [1, 3]: 0.666 ± 0.019 | protein stability index [1, 4]: 0.694 ± 0.052 | protein stability index [1, 5]: 0.659 ± 0.027 | protein stability index [1, 6]: 0.732 ± 0.025 | protein stability index [1, 7]: 0.155 ± 0.0053 | protein stability index [1, 8]: 0.196 ± 0.058 | protein stability index [1, 9]: 0.407 ± 0.1 | protein stability index [2]: 0.28 ± 0.043

FLDYLLFIFFFF
protein stability index [1, 3]: 0.431 ± 0.054 | protein stability index [1, 4]: 0.519 ± 0.041 | protein stability index [1, 5]: 0.419 ± 0.032 | protein stability index [1, 6]: 0.522 ± 0.0072 | protein stability index [1, 7]: 0.464 ± 0.0094 | protein stability index [1, 8]: 0.392 ± 0.037 | protein stability index [1, 9]: 0.473 ± 0.039 | protein stability index [2]: 0.415 ± 0.008

FLSRVVLVVLLV
protein stability index [1, 3]: 0.258 ± 0.018 | protein stability index [1, 4]: 0.333 ± 0.006 | protein stability index [1, 5]: 0.245 ± 0.029 | protein stability index [1, 6]: 0.43 ± 0.02 | protein stability index [1, 7]: 0.196 ± 0.015 | protein stability index [1, 8]: 0.215 ± 0.034 | protein stability index [1, 9]: 0.339 ± 0.029 | protein stability index [2]: 0.288 ± 0.026

VSIRVVVWVSWG
protein stability index [1, 3]: 0.133 ± 0.0081 | protein stability index [1, 4]: 0.2248 ± 0.00098 | protein stability index [1, 5]: 0.145 ± 0.022 | protein stability index [1, 6]: 0.259 ± 0.011 | protein stability index [1, 7]: 0.121 ± 0.0089 | protein stability index [1, 8]: 0.143 ± 0.02 | protein stability index [1, 9]: 0.223 ± 0.013 | protein stability index [2]: 0.226 ± 0.032

VSLSEVAIIVHG
protein stability index [1, 3]: 0.544 ± 0.025 | protein stability index [1, 4]: 0.611 ± 0.0098 | protein stability index [1, 5]: 0.418 ± 0.035 | protein stability index [1, 6]: 0.596 ± 0.014 | protein stability index [1, 7]: 0.391 ± 0.022 | protein stability index [1, 8]: 0.426 ± 0.022 | protein stability index [1, 9]: 0.5739 ± 0.0012 | protein stability index [2]: 0.517 ± 0.026

MMYTLSMLLRLR
protein stability index [1, 3]: 0.43 ± 0.014 | protein stability index [1, 4]: 0.5 ± 0.0093 | protein stability index [1, 5]: 0.506 ± 0.016 | protein stability index [1, 6]: 0.528 ± 0.015 | protein stability index [1, 7]: 0.64799 ± 0.00045 | protein stability index [1, 8]: 0.52 ± 0.02 | protein stability index [1, 9]: 0.546 ± 0.0085 | protein stability index [2]: 0.513 ± 0.047

LQLGFCFVAQFI
protein stability index [1, 3]: 0.6346 ± 0.0062 | protein stability index [1, 4]: 0.675 ± 0.02 | protein stability index [1, 5]: 0.491 ± 0.035 | protein stability index [1, 6]: 0.6394 ± 0.0044 | protein stability index [1, 7]: 0.462 ± 0.03 | protein stability index [1, 8]: 0.476 ± 0.024 | protein stability index [1, 9]: 0.607 ± 0.02 | protein stability index [2]: 0.509 ± 0.03

PSPFHSFYLRLI
protein stability index [1, 3]: 0.5716 ± 0.0014 | protein stability index [1, 4]: 0.643 ± 0.009 | protein stability index [1, 5]: 0.579 ± 0.011 | protein stability index [1, 6]: 0.712 ± 0.028 | protein stability index [1, 7]: 0.263 ± 0.0033 | protein stability index [1, 8]: 0.249 ± 0.014 | protein stability index [1, 9]: 0.483 ± 0.0017 | protein stability index [2]: 0.398 ± 0.033

SFLCILIFPFFP
protein stability index [1, 3]: 0.497 ± 0.051 | protein stability index [1, 4]: 0.6 ± 0.015 | protein stability index [1, 5]: 0.411 ± 0.02 | protein stability index [1, 6]: 0.6 ± 0.015 | protein stability index [1, 7]: 0.391 ± 0.011 | protein stability index [1, 8]: 0.408 ± 0.028 | protein stability index [1, 9]: 0.5623 ± 0.0044 | protein stability index [2]: 0.469 ± 0.034

SELLVHVVFWLA
protein stability index [1, 3]: 0.268 ± 0.013 | protein stability index [1, 4]: 0.438 ± 0.038 | protein stability index [1, 5]: 0.289 ± 0.03 | protein stability index [1, 6]: 0.463 ± 0.012 | protein stability index [1, 7]: 0.1383 ± 0.00086 | protein stability index [1, 8]: 0.176 ± 0.019 | protein stability index [1, 9]: 0.303 ± 0.011 | protein stability index [2]: 0.247 ± 0.025

SPCLSWTLVLVL
protein stability index [1, 3]: 0.275 ± 0.013 | protein stability index [1, 4]: 0.324 ± 0.0061 | protein stability index [1, 5]: 0.215 ± 0.026 | protein stability index [1, 6]: 0.407 ± 0.0077 | protein stability index [1, 7]: 0.195 ± 0.0034 | protein stability index [1, 8]: 0.203 ± 0.016 | protein stability index [1, 9]: 0.345 ± 0.0051 | protein stability index [2]: 0.302 ± 0.037

TYSVIPSLALLP
protein stability index [1, 3]: 0.664 ± 0.03 | protein stability index [1, 4]: 0.727 ± 0.013 | protein stability index [1, 5]: 0.643 ± 0.014 | protein stability index [1, 6]: 0.7298 ± 0.0043 | protein stability index [1, 7]: 0.648 ± 0.012 | protein stability index [1, 8]: 0.652 ± 0.032 | protein stability index [1, 9]: 0.704 ± 0.022 | protein stability index [2]: 0.224 ± 0.051

KFWVVLIEIKYH
protein stability index [1, 3]: 0.0696 ± 0.0057 | protein stability index [1, 4]: 0.132 ± 0.03 | protein stability index [1, 5]: 0.159 ± 0.036 | protein stability index [1, 6]: 0.35 ± 0.092 | protein stability index [1, 7]: 0.0681 ± 0.015 | protein stability index [1, 8]: 0.0691 ± 0.036 | protein stability index [1, 9]: 0.1043 ± 0.00085 | protein stability index [2]: 0.172 ± 0.0091

FKKIKGKIEKKN
protein stability index [1, 3]: 0.736 ± 0.021 | protein stability index [1, 4]: 0.897 ± 0.023 | protein stability index [1, 5]: 0.609 ± 0.042 | protein stability index [1, 6]: 0.726 ± 0.05 | protein stability index [1, 7]: 0.339 ± 0.061 | protein stability index [1, 8]: 0.336 ± 0.012 | protein stability index [1, 9]: 0.448 ± 0.0082 | protein stability index [2]: 0.481 ± 0.023

FFVFPFGLLFLS
protein stability index [1, 3]: 0.504 ± 0.058 | protein stability index [1, 4]: 0.515 ± 0.013 | protein stability index [1, 5]: 0.433 ± 0.023 | protein stability index [1, 6]: 0.583 ± 0.011 | protein stability index [1, 7]: 0.2525 ± 0.0007 | protein stability index [1, 8]: 0.232 ± 0.02 | protein stability index [1, 9]: 0.385 ± 0.0085 | protein stability index [2]: 0.342 ± 0.0054

NFFIQFHNLLFP
protein stability index [1, 3]: 0.754 ± 0.017 | protein stability index [1, 4]: 0.765 ± 0.037 | protein stability index [1, 5]: 0.664 ± 0.0089 | protein stability index [1, 6]: 0.769 ± 0.022 | protein stability index [1, 7]: 0.653 ± 0.017 | protein stability index [1, 8]: 0.6712 ± 0.0036 | protein stability index [1, 9]: 0.774 ± 0.027 | protein stability index [2]: 0.718 ± 0.0086

GLACNPQLLRWT
protein stability index [1, 3]: 0.692 ± 0.014 | protein stability index [1, 4]: 0.7433 ± 0.0064 | protein stability index [1, 5]: 0.653 ± 0.018 | protein stability index [1, 6]: 0.7437 ± 0.0035 | protein stability index [1, 7]: 0.665 ± 0.035 | protein stability index [1, 8]: 0.654 ± 0.027 | protein stability index [1, 9]: 0.7175 ± 0.0069 | protein stability index [2]: 0.756 ± 0.051

LLMCCLPFLWVF
protein stability index [1, 3]: 0.409 ± 0.033 | protein stability index [1, 4]: 0.432 ± 0.011 | protein stability index [1, 5]: 0.328 ± 0.039 | protein stability index [1, 6]: 0.4679 ± 0.0022 | protein stability index [1, 7]: 0.2085 ± 0.002 | protein stability index [1, 8]: 0.228 ± 0.022 | protein stability index [1, 9]: 0.316 ± 0.0053 | protein stability index [2]: 0.306 ± 0.021
